Test results taken from US20260232759A1, “PEPTIDES THAT INHIBIT INFECTION BY SARS-COV-2, THE VIRUS THAT CAUSES COVID-19 DISEASE” (Wisconsin Alumni Research Foundation, priority 2021, published 2026).
Where two headings read alike, the source gives them in different places. No end group written: not given here.

Tests used:
[1] = molecular target: SARS-CoV-2 Spike protein (SARS-CoV-2), P0DTC2; assay: cell-based or functional assay
[2] = molecular target: SARS-CoV-2 Spike protein (SARS-CoV-2), P0DTC2; assay: cell-based or functional assay; remark: listed apart in the source

Row | Binder | inhibition of S-mediated cell-cell fusion (β-Gal complementation), IC50 [1] [nM] | inhibition of S-mediated cell-cell fusion (β-Gal complementation), IC90 [1] [nM] | inhibition of S-mediated cell-cell fusion (β-Gal complementation), IC50 [2] [nM]
1 | DISQINASVVNIEYEIXKLEEVAXKLEESLIDLQELGSGSGC (not fully specified (C-terminus); also: α/β-peptide, β-residue positions not given here, alias: peg4 chol conjugate) [α/β-SARS2 HRC QE-8] | 100 |  | 
2 | DISQINASVVNIEYEIXKLEEVAKKLEESLIDLQELGSGSGC (not fully specified (C-terminus); also: α/β-peptide, β-residue positions not given here, alias: peg4 chol conjugate) [α/β-SARS2 HRC QE-5] | 1000 |  | 
3 | DISQINASVVNIEYEIKKLEEVAXKLEESLIDLQELGSGSGC (not fully specified (C-terminus); also: α/β-peptide, β-residue positions not given here, alias: peg4 chol conjugate) [α/β-SARS2 HRC QE-6] | 20 | 100 | 
4 | DISQINASVVNIEYEIXKLEEVAXKLEESLIDLQELGSGSGC (not fully specified (C-terminus); also: α/β-peptide, β-residue positions not given here, alias: peg4 chol conjugate) [α/β-SARS2 HRC QE-7] | 20 | 100 | 10
5 | DISQINASVVNIEYEIXKLEEVAXKLEESLIDLQELGSGSGC (not fully specified (C-terminus); also: α/β-peptide, β-residue positions not given here) [α/β-SARS2 HRC QE-15] |  |  | 50
6 | DISQINASVVNIEYEIXKLEEVAXKLEESLIDLQELGSGSGC (not fully specified (C-terminus); also: α/β-peptide, β-residue positions not given here) [α/β-SARS2 HRC QE-17] |  |  | 10
